Like-named read-outs stand apart in the source and are kept apart here.
Experiments:
gp140Con-s (HIV-1) = assay: ELISA (OD 450 nm) on Cons gp140 (gp140Con-s), sCD4Fc titrated [A]
[1] = molecular target: HIV-1 Env of isolate CM240.EC1 (HIV-1); assay: cell-based or functional assay
[2] = molecular target: HIV-1 Env of isolate N1 1046.e3 PV (HIV-1); assay: cell-based or functional assay
[3] = molecular target: HIV-1 Env of isolate PBL286.VRC36aPV (HIV-1); assay: cell-based or functional assay
[4] = molecular target: HIV-1 Env of isolate BZ167.ec9 (HIV-1); assay: cell-based or functional assay
[5] = molecular target: HIV-1 Env of isolate KNH1144.EC1 (HIV-1); assay: cell-based or functional assay
[6] = molecular target: HIV-1 Env of isolate 57128.VRC18 (HIV-1); assay: cell-based or functional assay
[7] = molecular target: HIV-1 Env of isolate 55815.EC3 (HIV-1); assay: cell-based or functional assay
[8] = molecular target: HIV-1 Env of isolate Bal.EC1 TC (HIV-1); assay: cell-based or functional assay
[9] = molecular target: HIV-1 Env of isolate CAM0015BBY.EC3 (HIV-1); assay: cell-based or functional assay
[10] = molecular target: HIV-1 Env of isolate GS-015.EC12 (HIV-1); assay: cell-based or functional assay
[11] = molecular target: HIV-1 Env of isolate A07412VRC12A (HIV-1); assay: cell-based or functional assay
[12] = molecular target: HIV-1 Env of isolate KNH1088.EC5 (HIV-1); assay: cell-based or functional assay
[13] = molecular target: HIV-1 Env of isolate Bal (HIV-1); assay: cell-based or functional assay
[14] = molecular target: HIV-1 Env of isolate GXC (HIV-1); assay: cell-based or functional assay
[15] = molecular target: HIV-1 Env of isolate JRFL (HIV-1); assay: cell-based or functional assay
[16] = molecular target: HIV-1 Env of isolate Z2Z6 (HIV-1); assay: cell-based or functional assay
[17] = molecular target: HIV-1 Env of isolate 89.6 (HIV-1); assay: cell-based or functional assay
[18] = molecular target: HIV-1 Env of isolate JRCSF (HIV-1) (UniProt P20871); assay: cell-based or functional assay
[19] = molecular target: HIV-1 Env of isolate GXE (HIV-1); assay: cell-based or functional assay
[20] = molecular target: HIV-1 Env of isolate R2 (HIV-1); assay: cell-based or functional assay
[21] = molecular target: HIV-1 Env of isolate 92UG037.8 (HIV-1); assay: cell-based or functional assay
[22] = molecular target: HIV-1 Env of isolate AD8 (HIV-1); assay: cell-based or functional assay
[23] = molecular target: HIV-1 Env of isolate IIIB (HIV-1); assay: cell-based or functional assay
[24] = molecular target: HIV-1 Env of isolate NL4-3 (HIV-1); assay: cell-based or functional assay
[25] = molecular target: HIV-1 Env of isolate CM243 (HIV-1); assay: cell-based or functional assay
[26] = molecular target: HIV-1 Env of isolate Bal (HIV-1); assay: cell-based or functional assay; remark: listed apart in the source
[27] = molecular target: HIV-1 Env of isolate JRFL (HIV-1); assay: cell-based or functional assay; remark: listed apart in the source

Sequence of HIV-1 Env of isolate JRCSF (HIV-1) (P20871 32-848 limits assumed): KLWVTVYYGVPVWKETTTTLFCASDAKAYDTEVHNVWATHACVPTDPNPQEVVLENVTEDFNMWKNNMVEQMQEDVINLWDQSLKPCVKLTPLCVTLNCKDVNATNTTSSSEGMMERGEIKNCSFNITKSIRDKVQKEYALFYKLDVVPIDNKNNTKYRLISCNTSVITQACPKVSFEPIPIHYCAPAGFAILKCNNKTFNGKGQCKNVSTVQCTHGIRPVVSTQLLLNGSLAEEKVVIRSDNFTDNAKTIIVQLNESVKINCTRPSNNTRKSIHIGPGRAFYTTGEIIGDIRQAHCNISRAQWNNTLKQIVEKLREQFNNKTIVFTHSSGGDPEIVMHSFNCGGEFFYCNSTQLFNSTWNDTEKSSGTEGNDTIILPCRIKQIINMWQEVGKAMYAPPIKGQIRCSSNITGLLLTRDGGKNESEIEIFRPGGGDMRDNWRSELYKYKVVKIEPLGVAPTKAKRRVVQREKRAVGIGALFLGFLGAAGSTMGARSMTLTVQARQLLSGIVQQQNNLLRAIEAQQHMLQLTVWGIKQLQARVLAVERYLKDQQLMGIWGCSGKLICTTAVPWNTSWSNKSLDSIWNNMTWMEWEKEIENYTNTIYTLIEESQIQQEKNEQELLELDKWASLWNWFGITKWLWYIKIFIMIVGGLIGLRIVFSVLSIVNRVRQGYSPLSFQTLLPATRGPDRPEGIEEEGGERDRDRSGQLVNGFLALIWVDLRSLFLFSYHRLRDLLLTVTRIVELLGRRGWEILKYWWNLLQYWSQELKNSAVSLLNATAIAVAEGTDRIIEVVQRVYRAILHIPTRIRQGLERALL

Substance: D1D2mFc (from UniProt P01730 26-203) (Fc fusion)
- EC50 (read off the curve) (gp140Con-s (HIV-1)): 0.3 nM

Substance: b12 (antibody)
- IC50, neutralization in TZM-bl cell-based assay [1]: 82 nM
- IC90, neutralization in TZM-bl cell-based assay [1]: > 167 nM
- IC50, neutralization in TZM-bl cell-based assay [2]: 138 nM
- IC90, neutralization in TZM-bl cell-based assay [2]: > 167 nM
- IC50, neutralization in TZM-bl cell-based assay [3]: 4 nM
- IC90, neutralization in TZM-bl cell-based assay [3]: 19 nM
- IC90, neutralization in TZM-bl cell-based assay [4]: > 167 nM
- IC50, neutralization in TZM-bl cell-based assay [5]: > 167 nM
- IC90, neutralization in TZM-bl cell-based assay [5]: > 167 nM
- IC90, neutralization in TZM-bl cell-based assay [6]: 30 nM
- IC50, neutralization in TZM-bl cell-based assay [7]: > 167 nM
- IC90, neutralization in TZM-bl cell-based assay [7]: > 167 nM
- IC90, neutralization in TZM-bl cell-based assay [8]: 3.6 nM
- IC50, neutralization in TZM-bl cell-based assay [9]: 81 nM
- IC90, neutralization in TZM-bl cell-based assay [9]: > 167 nM
- IC50, neutralization in TZM-bl cell-based assay [10]: 0.085 nM
- IC90, neutralization in TZM-bl cell-based assay [10]: 1.6 nM
- IC50, neutralization in TZM-bl cell-based assay [11]: 12 nM
- IC90, neutralization in TZM-bl cell-based assay [11]: > 167 nM
- IC50, neutralization in TZM-bl cell-based assay [12]: 117 nM
- IC90, neutralization in TZM-bl cell-based assay [12]: > 167 nM

Substance: 4Dm2m (bispecific antibody)
- IC50, neutralization in TZM-bl cell-based assay [1]: 0.45 nM
- IC90, neutralization in TZM-bl cell-based assay [1]: 3.7 nM
- IC50, inhibition of Env-mediated cell-cell fusion [13]: 4.1 nM
- IC50, neutralization of pseudotyped HIV-1 [13]: 0.15 nM
- IC90, neutralization of pseudotyped HIV-1 [13]: 0.5 nM
- IC50, neutralization of pseudotyped HIV-1 [14]: 0.61 nM
- IC90, neutralization of pseudotyped HIV-1 [14]: 4 nM
- IC50, inhibition of Env-mediated cell-cell fusion [15]: 3.6 nM
- IC50, neutralization of pseudotyped HIV-1 [15]: 0.14 nM
- IC90, inhibition of Env-mediated cell-cell fusion [15]: 8.8 nM
- IC90, neutralization of pseudotyped HIV-1 [15]: 0.39 nM
- IC50, neutralization of pseudotyped HIV-1 [16]: 0.14 nM
- IC90, neutralization of pseudotyped HIV-1 [16]: 1.1 nM
- IC90, neutralization in TZM-bl cell-based assay [2]: 27 nM
- IC50, neutralization in TZM-bl cell-based assay [3]: 2 nM
- IC50, neutralization in TZM-bl cell-based assay [4]: 0.077 nM
- IC90, neutralization in TZM-bl cell-based assay [4]: 0.5 nM
- IC50, neutralization of pseudotyped HIV-1 [17]: < 0.021 nM
- IC90, neutralization of pseudotyped HIV-1 [17]: < 0.021 nM
- IC50, neutralization of pseudotyped HIV-1 [18]: 0.29 nM
- IC90, neutralization of pseudotyped HIV-1 [18]: 3 nM
- IC50, neutralization of pseudotyped HIV-1 [19]: 0.83 nM
- IC90, neutralization of pseudotyped HIV-1 [19]: 8.2 nM
- IC50, neutralization in TZM-bl cell-based assay [5]: 0.081 nM
- IC90, neutralization in TZM-bl cell-based assay [5]: 1 nM
- IC50, neutralization in TZM-bl cell-based assay [6]: 0.4 nM
- IC90, neutralization in TZM-bl cell-based assay [6]: 2.8 nM
- IC50, neutralization of pseudotyped HIV-1 [20]: 0.028 nM
- IC90, neutralization of pseudotyped HIV-1 [20]: 0.43 nM
- IC50, neutralization in TZM-bl cell-based assay [7]: 0.084 nM
- IC90, neutralization in TZM-bl cell-based assay [7]: 0.61 nM
- IC50, neutralization in TZM-bl cell-based assay [8]: 0.057 nM
- IC90, neutralization in TZM-bl cell-based assay [8]: 0.22 nM
- IC50, neutralization in TZM-bl cell-based assay [9]: 0.72 nM
- IC90, neutralization in TZM-bl cell-based assay [9]: 7.4 nM
- IC50, neutralization of pseudotyped HIV-1 [21]: 0.051 nM
- IC90, neutralization of pseudotyped HIV-1 [21]: 0.45 nM
- IC50, neutralization of pseudotyped HIV-1 [22]: 0.13 nM
- IC90, neutralization of pseudotyped HIV-1 [22]: 0.74 nM
- IC50, neutralization in TZM-bl cell-based assay [10]: 0.022 nM
- IC90, neutralization in TZM-bl cell-based assay [10]: 0.17 nM
- IC50, neutralization of pseudotyped HIV-1 [23]: 0.037 nM
- IC90, neutralization of pseudotyped HIV-1 [23]: 0.1 nM
- IC50, neutralization of pseudotyped HIV-1 [24]: 0.094 nM
- IC90, neutralization of pseudotyped HIV-1 [24]: 0.15 nM
- IC50, neutralization of pseudotyped HIV-1 [25]: 0.29 nM
- IC90, neutralization of pseudotyped HIV-1 [25]: 1.2 nM
- IC50, neutralization in TZM-bl cell-based assay [11]: 0.75 nM
- IC90, neutralization in TZM-bl cell-based assay [11]: 5.7 nM
- IC50, neutralization in TZM-bl cell-based assay [12]: 0.48 nM
- IC50, neutralization of pseudotyped HIV-1 [26]: 0.12 nM
- IC90, neutralization of pseudotyped HIV-1 [26]: 0.36 nM
- IC50, neutralization of pseudotyped HIV-1 [27]: 0.06 nM
- IC90, neutralization of pseudotyped HIV-1 [27]: 0.29 nM

Source: patent US20160039904A1, “STABILIZED SINGLE HUMAN CD4 DOMAINS AND FUSION PROTEINS” (priority 2013, published 2016)
